Assay results taken from patent publication US20250369970A1 (ACADEMIA SINICA, published 2025).

biological target: recombinant p30 protein of ASFV (African swine fever virus (ASFV), UniProt P0C9Z3 1-181); test: ELISA, IgG titrated on immobilized recombinant p30

| Binder | EC50 |
| --- | --- |
| p30-091 IgG (antibody, V domains shown) VH: EVQLVESGGGLVQPGGSLRLSCAASGFTISDYWIHWVRQAPGKGLEWVAYINPHYGLTDYADSVKGRFTISADTSKNTAYLQMNSLRAEDTAVYYCARGWLLDYWGQGTLVTVSS VL: DIQMTQSPSSLSASVGDRVTITCKSNQNLLDSGDQGTYLNWYQQKPGKAPKLLISDVSNLYSGVPSRFSGSGSGTDFTLTISSLQPEDFATYYCYQATSFPFTFGQGTKVEIKR | 2.6 ng/mL |
| p30-077 IgG (antibody, V domains shown) VH: EVQLVESGGGLVQPGGSLRLSCAASGFTIGDWGIHWVRQAPGKGLEWVAGIWPFGGFTFYADSVKGRFTISADTSKNTAYLQMNSLRAEDTAVYYCARGSFYWDYWGQGTLVTVSS VL: DIQMTQSPSSLSASVGDRVTITCRASQDVNNNVAWYQQKPGKAPKLLISSPTYLYSGVPSRFSGSGSGTDFTLTISSLQPEDFATYYCQQWYDWPITFGQGTKVEIKR | 2.6 ng/mL |
| p30-090 IgG (antibody, V domains shown) VH: EVQLVESGGGLVQPGGSLRLSCAASGFTIDGGGIHWVRQAPGKGLEWVAGIWPSWGYTYYADSVKGRFTISADTSKNTAYLQMNSLRAEDTAVYYCARGFYWYDYWGQGTLVTVSS VL: DIQMTQSPSSLSASVGDRVTITCRASQDVNNDVAWYQQKPGKAPKLLIFYPGGLYSGVPSRFSGSGSGTDFTLTISSLQPEDFATYYCQQSWNYPLTFGQGTKVEIKR | 0.9 ng/mL |
| p30-052 IgG (antibody, V domains shown) VH: EVQLVESGGGLVQPGGSLRLSCAASGFTIDSGFIHWVRQAPGKGLEWVAGIGPFWGFTFYADSVKGRFTISADTSKNTAYLQMNSLRAEDTAVYYCARYGSSSYGFDYWGQGTLVTVSS VL: DIQMTQSPSSLSASVGDRVTITCRASQDVDNNVAWYQQKPGKAPKLLISSPGFLYSGVPSRFSGSGSGTDFTLTISSLQPEDFATYYCQQYFNFPITFGQGTKVEIKR | 2 ng/mL |
